Here are results for 40 molecules from US20230125550A1 (ARCELLX, published 2023).

The experiment concerns the target T1, AFP p26 (human, UniProt P02771 381-609).
T1 construct: The construct used is not described
T1 sequence: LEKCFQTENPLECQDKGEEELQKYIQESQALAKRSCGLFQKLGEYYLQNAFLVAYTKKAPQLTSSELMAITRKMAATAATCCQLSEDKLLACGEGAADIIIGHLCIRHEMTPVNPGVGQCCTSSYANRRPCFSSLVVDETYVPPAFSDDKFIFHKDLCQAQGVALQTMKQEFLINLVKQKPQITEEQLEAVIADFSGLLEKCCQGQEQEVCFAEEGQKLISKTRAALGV
Description: phage ELISA, A450 target/A450 IgG1-Fc. In outline: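 Phage rescued with VCSM13 helper phage from phagemid colonies picked from panning output were tested on plates coated with goat anti-human IgG1-Fc antibody that carried either recombinant human target or IgG1-Fc. Bound phage were detected with HRP-conjugated anti-M13 antibody at 450 nm. The ELISA ratio is target absorbance over IgG1-Fc absorbance, averaged across all screened wells holding the clone.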

B1: SEQ ID NO 777 (designed binder)
chain: MGSWTEFWHRLEAIDSRLWALGGSEAELAAFEKEIAAFESELQAYKGKGNPEVESLREHAAHIRVWLQAYRHN
The molecule B1 displayed an ELISA_avg of 13.2 ratio.

B2: SEQ ID NO 802 (designed binder)
chain: MGSWSEFVHRLDAIEVRLFALGGSEAELAAFEKEIAAFESELQAYKGKGNPEVEELRYHAAKIRSWLQAYRHN
B2 came in with an ELISA_avg of 16.9 ratio.

B3: SEQ ID NO 800 (designed binder)
chain: MGSWYEFVIRLDAIEDRLFALGGSEAELAAFEKEIAAFESELQAYKGKGNPEVEHLRVHAAHIRVWLQAYRHN
B3: the ELISA_avg was 30.1 ratio.

B4: SEQ ID NO 796 (designed binder)
chain: MGSWFEFFERLAAIEDRLWALGGSEAELAAFEKEIAAFESELQAYKGKGNPEVESLRVHAAAIRAFLQAYRHN
Turning to B4, the ELISA_avg amounted to 20.3 ratio.

B5: SEQ ID NO 772 (designed binder)
chain: MGSWNEFMDRLNAIDNRLWALGGSEAELAAFEKEIAAFESELQAYKGKGNPEVENLRKQAASIRLWLQAYRHN
Molecule B5 returned an ELISA_avg of 10 ratio.

B6: SEQ ID NO 782 (designed binder)
chain: MGSWTEFHQRLDAIDERLWALGGSEAELAAFEKEIAAFESELQAYKGKGNPEVEFLREHAAKIRMWLQAYRHN
With B6, the ELISA_avg stood at 24.4 ratio.

B7: SEQ ID NO 799 (designed binder)
chain: MGSWVEFVTRLEAIEDRLFALGGSEAELAAFEKEIAAFESELQAYKGKGNPEVEHLRAHAAHIRHWLQAYRHN
Take B7: the ELISA_avg is 11.7 ratio.

B8: SEQ ID NO 773 (designed binder)
chain: MGSWNEFFQRLNAIDERLWALGGSEAELAAFEKEIAAFESELQAYKGKGNPEVEDLRQHAANIRWWLQAYRHN
In turn, B8 yielded an ELISA_avg of 28.7 ratio.

B9: SEQ ID NO 749 (designed binder)
chain: MGSWFEFYDRLNAIDARLWALGGSEAELAAFEKEIAAFESELQAYKGKGNPEVENLRVHAAAIREWLQAYRHN
With B9, the ELISA_avg is 5.92 ratio.

B10: SEQ ID NO 769 (designed binder)
chain: MGSWEEFYYRLEAIDARLFALGGSEAELAAFEKEIAAFESELQAYKGKGNPEVEELRVHAAHIRDWLQAYRHN
The molecule B10 displayed an ELISA_avg of 30.3 ratio.

B11: SEQ ID NO 784 (designed binder)
chain: MGSWTEFVNRLYAIDSRLWALGGSEAELAAFEKEIAAFESELQAYKGKGNPEVEGLRTHAAKIRHWLQAYRHN
For the molecule B11, the ELISA_avg worked out at 16.7 ratio.

B12: SEQ ID NO 781 (designed binder)
chain: MGSWTEFEKRLHAIDYRLWALGGSEAELAAFEKEIAAFESELQAYKGKGNPEVEDLREHAAAIRHWLQAYRHN
B12 displayed an ELISA_avg of 17.1 ratio.

B13: SEQ ID NO 770 (designed binder)
chain: MGSWVEFHYRLQAIDARLWALGGSEAELAAFEKEIAAFESELQAYKGKGNPEVEELRVHAAHIRKWLQAYRHN
For the molecule B13, the ELISA_avg stood at 14.8 ratio.

B14: SEQ ID NO 798 (designed binder)
chain: MGSWYEFMYRLDAIEYRLFALGGSEAELAAFEKEIAAFESELQAYKGKGNPEVESLRIHAAMIREWLQAYRHN
Molecule B14 registered an ELISA_avg of 19.4 ratio.

B15: SEQ ID NO 804 (designed binder)
chain: MGSWYEFYLRLSAIEDRLFALGGSEAELAAFEKEIAAFESELQAYKGKGNPEVESLRVQAAHIRTWLQAYRHN
For the molecule B15, the ELISA_avg was 27.4 ratio.

B16: SEQ ID NO 778 (designed binder)
chain: MGSWTEFQNRLNAIDHRLWALGGSEAELAAFEKEIAAFESELQAYKGKGNPEVESLREHAAKIRVWLQAYRHN
The molecule B16 came in with an ELISA_avg of 30.5 ratio.

B17: SEQ ID NO 767 (designed binder)
chain: MGSWIEFYWRLEAIDQRLWALGGSEAELAAFEKEIAAFESELQAYKGKGNPEVEDLRVHAAAIRWWLQAYRHN
In the case of B17, the ELISA_avg turned out to be 9.4 ratio.

B18: SEQ ID NO 788 (designed binder)
chain: MGSWLEFHSRLDAIDTRLWALGGSEAELAAFEKEIAAFESELQAYKGKGNPEVEKLREHAAAIRHYLQAYRHN
Molecule B18 showed an ELISA_avg of 30.8 ratio.

B19: SEQ ID NO 795 (designed binder)
chain: MGSWYEFSHRLEAIEDRLFALGGSEAELAAFEKEIAAFESELQAYKGKGNPEVEPLREHAAYIRHWLQAYRHN
The molecule B19 came in with an ELISA_avg of 26 ratio.

B20: SEQ ID NO 785 (designed binder)
chain: MGSWMEFVDRLSAIDRRLWALGGSEAELAAFEKEIAAFESELQAYKGKGNPEVEVLREHAANIRQWLQAYRHN
Regarding B20, the ELISA_avg came out at 32.1 ratio.

B21: SEQ ID NO 797 (designed binder)
chain: MGSWIEFKYRLDAIEWRLEALGGSEAELAAFEKEIAAFESELQAYKGKGNPEVESLRIHAAAIRTWLQAYRHN
Regarding B21, the ELISA_avg worked out at 18.3 ratio.

B22: SEQ ID NO 794 (designed binder)
chain: MGSWYEFVSRLEAIDDRLYALGGSEAELAAFEKEIAAFESELQAYKGKGNPEVEMLRQHAAAIRHWLQAYRHN
B22 came in with an ELISA_avg of 33.1 ratio.

B23: SEQ ID NO 768 (designed binder)
chain: MGSWSEFVKRLDAIDQRLWALGGSEAELAAFEKEIAAFESELQAYKGKGNPEVESLRVHAAAIRAWLQAYRHN
The molecule B23 returned an ELISA_avg of 27 ratio.

B24: SEQ ID NO 758 (designed binder)
chain: MGSWLEFYHRLNAIDSRLWALGGSEAELAAFEKEIAAFESELQAYKGKGNPEVESLRDHAAHIREWLQAYRHN
Turning to B24, the ELISA_avg was determined as 19.2 ratio.

B25: SEQ ID NO 783 (designed binder)
chain: MGSWLEFSQRLTAIDSRLWALGGSEAELAAFEKEIAAFESELQAYKGKGNPEVENLREHAAKIRNWLQAYRHN
Turning to B25, the ELISA_avg amounted to 30.4 ratio.

B26: SEQ ID NO 787 (designed binder)
chain: MGSWSEFHTRLDAIDTRLWALGGSEAELAAFEKEIAAFESELQAYKGKGNPEVEDLRRHAAAIRFWLQAYRHN
The molecule B26 had an ELISA_avg of 23.5 ratio.

B27: SEQ ID NO 776 (designed binder)
chain: MGSWYEFRARLLAIDERLWALGGSEAELAAFEKEIAAFESELQAYKGKGNPEVEHLREHAAHIRNFLQAYRHN
B27 yielded an ELISA_avg of 20.9 ratio.

B28: SEQ ID NO 803 (designed binder)
chain: MGSWSEFYYRLAAIESRLFALGGSEAELAAFEKEIAAFESELQAYKGKGNPEVERLREHAAHIRRWLQAYRHN
In the case of B28, the ELISA_avg came to 30.8 ratio.

B29: SEQ ID NO 780 (designed binder)
chain: MGSWYEFQQRLEAIDTRLWALGGSEAELAAFEKEIAAFESELQAYKGKGNPEVEELREHAAHIRHWLQAYRHN
Turning to B29, the ELISA_avg was 27.3 ratio.

B30: SEQ ID NO 801 (designed binder)
chain: MGSWVEFVERLDAIEFRLFALGGSEAELAAFEKEIAAFESELQAYKGKGNPEVEKLRNHAAHIRSWLQAYRHN
On to B30, for which the ELISA_avg stood at 23.8 ratio.

B31: SEQ ID NO 775 (designed binder)
chain: MGSWYEFYLRLDAIDHRLWALGGSEAELAAFEKEIAAFESELQAYKGKGNPEVEMLREHAAHIRKWLQAYRHN
B31 gave an ELISA_avg of 16 ratio.

B32: SEQ ID NO 786 (designed binder)
chain: MGSWVEFVSRLYAIDFRLWALGGSEAELAAFEKEIAAFESELQAYKGKGNPEVEALREHAAQIRDWLQAYRHN
B32 showed an ELISA_avg of 29 ratio.

B33: SEQ ID NO 771 (designed binder)
chain: MGSWVEFVGRLNAIDARLWALGGSEAELAAFEKEIAAFESELQAYKGKGNPEVEELRHHAAEIRNWLQAYRHN
Molecule B33 gave an ELISA_avg of 26 ratio.

B34: SEQ ID NO 792 (designed binder)
chain: MGSWYEFYKRLEAIDNRLYALGGSEAELAAFEKEIAAFESELQAYKGKGNPEVEYLREHAAAIRHWLQAYRHN
Regarding B34, the ELISA_avg stood at 30.8 ratio.

B35: SEQ ID NO 793 (designed binder)
chain: MGSWYEFYYRLEAIDNRLIALGGSEAELAAFEKEIAAFESELQAYKGKGNPEVEVLREHAAKIREWLQAYRHN
For B35, the ELISA_avg was found to be 29.6 ratio.

B36: SEQ ID NO 774 (designed binder)
chain: MGSWYEFVVRLFAIDERLWALGGSEAELAAFEKEIAAFESELQAYKGKGNPEVESLREHAAHIRSWLQAYRHN
B36: the ELISA_avg amounted to 18.2 ratio.

B37: SEQ ID NO 779 (designed binder)
chain: MGSWSEFFKRLEAIDRRLWALGGSEAELAAFEKEIAAFESELQAYKGKGNPEVEELREHAAHIRVWLQAYRHN
The molecule B37 came in with an ELISA_avg of 30.2 ratio.

B38: SEQ ID NO 766 (designed binder)
chain: MGSWFEFYERLNAIDSRLWALGGSEAELAAFEKEIAAFESELQAYKGKGNPEVEKLRAHAASIRTWLQAYRHN
As for B38, the ELISA_avg was 27.1 ratio.

B39: SEQ ID NO 789 (designed binder)
chain: MGSWTEFYQRLDAIDTRLWALGGSEAELAAFEKEIAAFESELQAYKGKGNPEVEGLRQQAAQIRAWLQAYRHN
For B39, the ELISA_avg is 29.7 ratio.

B40: SEQ ID NO 748 (designed binder)
chain: MGSWSEFIFRLDAIHSRLQALGGSEAELAAFEKEIAAFESELQAYKGKGNPEVEYLRFIAAEIRLKLQAYRHN
As for B40, the ELISA_avg came out at 28.3 ratio.
